Results: patent US20190169261A1 (published 2019)

Columns and labels:
[1] = target: T1, PRAME peptide on HLA-A*02:01 (human); assay: killing
T1 peptide: SLLQHLIGL

[2] = target: T2, PRAME peptide on HLA-A*02:01 (human); assay: multimer staining
T2 peptide: VLDGLDVLL

B1: TCR T4.8-1-29 (TCR, V domains shown)
Valpha: EDQVTQSPEALRLQEGESSSLNCSYTVSGLRGLFWYRQDPGKGPEFLFTLYSAGEEKEKERLKATLTKKESFLHITAPKPEDSATYLCAVHSTAQAGTALIFGKGTTLSVSS
Vbeta: DSGVTQTPKHLITATGQRVTLRCSPRSGDLSVYWYQQSLDQGLQFLIQYYNGEERAKGNILERFSAQQFPDLHSELNLSSLELGDSALYFCASSTHRGQTNYGYTFGSGTRLTVV
B1: no recognition [1]; recognises [2].
